Experimental data as given in publication PMC3750215.

Tested on: Mdj1 (wt, mature)
Assay: EMSA
Conditions: EMSA with 0.36 nM 32P-ori5 DNA; buffer, salt, pH and temperature not given (as described in ref 35)

ori5 71 bp fragment
Kd: 210 nM
